Measured values reported in patent US20190241669A1 (published 2019).

Assays:
cynomolgus monkey BCMA = target: T1, cynomolgus monkey BCMA (cynomolgus monkey, UniProt A0A2K5UD97 1-53); assay: SPR, IgG on chip, cyBCMA analyte, 37C
T1 construct: Soluble analyte in SPR; construct not described; also called cyBCMA; Cyno BCMA

Human BCMA (human) = Human BCMA (human) (UniProt Q02223); assay: SPR, IgG immobilised, huBCMA analyte, 37 C

T1 sequence (A0A2K5UD97 entry or part of it): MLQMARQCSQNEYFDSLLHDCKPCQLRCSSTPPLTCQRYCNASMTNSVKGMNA

B1: L3.PY/L3.KF/H2.LT (antibody, V domains shown)
VH: EVQLLESGGGLVQPGGSLRLSCAASGFTFGSYAMTWVRQAPGKGLEWVSAISLTGGNTFYADSVKGRFTISRDNSKNTLYLQMNSLRAEDTAVYYCARVSPIASGMDYWGQGTLVTVSS
VL: EIVLTQSPGTLSLSPGERATLSCRASQSVSSSYLAWYQQKPGQAPRLLIYGASSRATGIPDRFSGSGSGTDFTLTISRLEPEDFAVYYCKFYPYPPSFTFGQGTKVEIK
notes: IgG
Cynomolgus monkey BCMA
  Kd: 2.16 nM
  T½: 2.8 min
  koff: 0.00413 s⁻¹
  kon: 1.91e+06 M⁻¹ s⁻¹
Human BCMA (human)
  Kd: 0.69 nM
  T½: 6.05 min
  koff: 0.00191 s⁻¹
  kon: 2.75e+06 M⁻¹ s⁻¹

B2: L3.PY/L3.KF/H2.QL (antibody, V domains shown)
VH: EVQLLESGGGLVQPGGSLRLSCAASGFTFGSYAMTWVRQAPGKGLEWVSAISGSGGNTFYADQLKGRFTISRDNSKNTLYLQMNSLRAEDTAVYYCARVSPIASGMDYWGQGTLVTVSS
VL: EIVLTQSPGTLSLSPGERATLSCRASQSVSSSYLAWYQQKPGQAPRLLIYGASSRATGIPDRFSGSGSGTDFTLTISRLEPEDFAVYYCKFYPYPPSFTFGQGTKVEIK
notes: IgG
Cynomolgus monkey BCMA
  Kd: 2.18 nM
  T½: 3.73 min
  koff: 0.0031 s⁻¹
  kon: 1.42e+06 M⁻¹ s⁻¹
Human BCMA (human)
  Kd: 0.6 nM
  T½: 9.26 min
  koff: 0.00125 s⁻¹
  kon: 2.07e+06 M⁻¹ s⁻¹

B3: L3.PY/L3.KY/H2.QR (antibody, V domains shown)
VH: EVQLLESGGGLVQPGGSLRLSCAASGFTFGSYAMTWVRQAPGKGLEWVSAISGSGGNTFYADQRKGRFTISRDNSKNTLYLQMNSLRAEDTAVYYCARVSPIASGMDYWGQGTLVTVSS
VL: EIVLTQSPGTLSLSPGERATLSCRASQSVSSSYLAWYQQKPGQAPRLLIYGASSRATGIPDRFSGSGSGTDFTLTISRLEPEDFAVYYCKYYPYPPSFTFGQGTKVEIK
notes: IgG
Cynomolgus monkey BCMA
  Kd: 3.78 nM
  T½: 1.49 min
  koff: 0.00774 s⁻¹
  kon: 2.05e+06 M⁻¹ s⁻¹
Human BCMA (human)
  Kd: 0.34 nM
  T½: 11.7 min
  koff: 0.00099 s⁻¹
  kon: 2.95e+06 M⁻¹ s⁻¹

B4: L3.PY/L3.KF/H3.YA (antibody, V domains shown)
VH: EVQLLESGGGLVQPGGSLRLSCAASGFTFGSYAMTWVRQAPGKGLEWVSAISGSGGNTFYADSVKGRFTISRDNSKNTLYLQMNSLRAEDTAVYYCARVSPIYAGMDYWGQGTLVTVSS
VL: EIVLTQSPGTLSLSPGERATLSCRASQSVSSSYLAWYQQKPGQAPRLLIYGASSRATGIPDRFSGSGSGTDFTLTISRLEPEDFAVYYCKFYPYPPSFTFGQGTKVEIK
notes: IgG
Cynomolgus monkey BCMA
  Kd: 3.78 nM
  T½: 1.45 min
  koff: 0.00796 s⁻¹
  kon: 2.1e+06 M⁻¹ s⁻¹
Human BCMA (human)
  Kd: 0.47 nM
  T½: 7.85 min
  koff: 0.00147 s⁻¹
  kon: 3.12e+06 M⁻¹ s⁻¹

B5: L3.PY/L3.KF/H2.YQ (antibody, V domains shown)
VH: EVQLLESGGGLVQPGGSLRLSCAASGFTFGSYAMTWVRQAPGKGLEWVSAISYQGGNTFYADSVKGRFTISRDNSKNTLYLQMNSLRAEDTAVYYCARVSPIASGMDYWGQGTLVTVSS
VL: EIVLTQSPGTLSLSPGERATLSCRASQSVSSSYLAWYQQKPGQAPRLLIYGASSRATGIPDRFSGSGSGTDFTLTISRLEPEDFAVYYCKFYPYPPSFTFGQGTKVEIK
notes: IgG
Cynomolgus monkey BCMA
  Kd: 3.55 nM
  T½: 2.3 min
  koff: 0.00501 s⁻¹
  kon: 1.41e+06 M⁻¹ s⁻¹
Human BCMA (human)
  Kd: 1.14 nM
  T½: 5.18 min
  koff: 0.00223 s⁻¹
  kon: 1.96e+06 M⁻¹ s⁻¹

B6: L3.PY/L3.KF/H3.TAQ (antibody, V domains shown)
VH: EVQLLESGGGLVQPGGSLRLSCAASGFTFGSYAMTWVRQAPGKGLEWVSAISGSGGNTFYADSVKGRFTISRDNSKNTLYLQMNSLRAEDTAVYYCTRVSPIAAQMDYWGQGTLVTVSS
VL: EIVLTQSPGTLSLSPGERATLSCRASQSVSSSYLAWYQQKPGQAPRLLIYGASSRATGIPDRFSGSGSGTDFTLTISRLEPEDFAVYYCKFYPYPPSFTFGQGTKVEIK
notes: IgG
Cynomolgus monkey BCMA
  Kd: 0.95 nM
  T½: 6.05 min
  koff: 0.00191 s⁻¹
  kon: 2.01e+06 M⁻¹ s⁻¹
Human BCMA (human)
  Kd: 0.58 nM
  T½: 7.12 min
  koff: 0.00162 s⁻¹
  kon: 2.82e+06 M⁻¹ s⁻¹

B7: L3.PY/L3.KY/H2.QL (antibody, V domains shown)
VH: EVQLLESGGGLVQPGGSLRLSCAASGFTFGSYAMTWVRQAPGKGLEWVSAISGSGGNTFYADQLKGRFTISRDNSKNTLYLQMNSLRAEDTAVYYCARVSPIASGMDYWGQGTLVTVSS
VL: EIVLTQSPGTLSLSPGERATLSCRASQSVSSSYLAWYQQKPGQAPRLLIYGASSRATGIPDRFSGSGSGTDFTLTISRLEPEDFAVYYCKYYPYPPSFTFGQGTKVEIK
notes: IgG
Cynomolgus monkey BCMA
  Kd: 1.49 nM
  T½: 2.83 min
  koff: 0.00409 s⁻¹
  kon: 2.75e+06 M⁻¹ s⁻¹
Human BCMA (human)
  Kd: 0.57 nM
  T½: 5.56 min
  koff: 0.00208 s⁻¹
  kon: 3.65e+06 M⁻¹ s⁻¹

B8: L3.PY/L3.KY/H2.DY (antibody, V domains shown)
VH: EVQLLESGGGLVQPGGSLRLSCAASGFTFGSYAMTWVRQAPGKGLEWVSAIDYSGGNTFYADSVKGRFTISRDNSKNTLYLQMNSLRAEDTAVYYCARVSPIASGMDYWGQGTLVTVSS
VL: EIVLTQSPGTLSLSPGERATLSCRASQSVSSSYLAWYQQKPGQAPRLLIYGASSRATGIPDRFSGSGSGTDFTLTISRLEPEDFAVYYCKYYPYPPSFTFGQGTKVEIK
notes: IgG
Cynomolgus monkey BCMA
  Kd: 1.24 nM
  T½: 4.75 min
  koff: 0.00243 s⁻¹
  kon: 1.96e+06 M⁻¹ s⁻¹
Human BCMA (human)
  Kd: 0.2 nM
  T½: 18 min
  koff: 0.000642 s⁻¹
  kon: 3.19e+06 M⁻¹ s⁻¹

B9: L3.PY/L3.KF/H3.AE (antibody, V domains shown)
VH: EVQLLESGGGLVQPGGSLRLSCAASGFTFGSYAMTWVRQAPGKGLEWVSAISGSGGNTFYADSVKGRFTISRDNSKNTLYLQMNSLRAEDTAVYYCARVSPIAAEMDYWGQGTLVTVSS
VL: EIVLTQSPGTLSLSPGERATLSCRASQSVSSSYLAWYQQKPGQAPRLLIYGASSRATGIPDRFSGSGSGTDFTLTISRLEPEDFAVYYCKFYPYPPSFTFGQGTKVEIK
notes: IgG
Cynomolgus monkey BCMA
  Kd: 3.05 nM
  T½: 2.05 min
  koff: 0.00564 s⁻¹
  kon: 1.85e+06 M⁻¹ s⁻¹
Human BCMA (human)
  Kd: 0.51 nM
  T½: 7.44 min
  koff: 0.00155 s⁻¹
  kon: 3.07e+06 M⁻¹ s⁻¹

B10: L3.PY/L3.KY/H2.HA (antibody, V domains shown)
VH: EVQLLESGGGLVQPGGSLRLSCAASGFTFGSYAMTWVRQAPGKGLEWVSAISHAGGNTFYADSVKGRFTISRDNSKNTLYLQMNSLRAEDTAVYYCARVSPIASGMDYWGQGTLVTVSS
VL: EIVLTQSPGTLSLSPGERATLSCRASQSVSSSYLAWYQQKPGQAPRLLIYGASSRATGIPDRFSGSGSGTDFTLTISRLEPEDFAVYYCKYYPYPPSFTFGQGTKVEIK
notes: IgG
Cynomolgus monkey BCMA
  Kd: 1.4 nM
  T½: 3.63 min
  koff: 0.00318 s⁻¹
  kon: 2.28e+06 M⁻¹ s⁻¹
Human BCMA (human)
  Kd: 0.49 nM
  T½: 7.1 min
  koff: 0.00163 s⁻¹
  kon: 3.29e+06 M⁻¹ s⁻¹

B11: L3.PY/L3.KY/H2.LT (antibody, V domains shown)
VH: EVQLLESGGGLVQPGGSLRLSCAASGFTFGSYAMTWVRQAPGKGLEWVSAISLTGGNTFYADSVKGRFTISRDNSKNTLYLQMNSLRAEDTAVYYCARVSPIASGMDYWGQGTLVTVSS
VL: EIVLTQSPGTLSLSPGERATLSCRASQSVSSSYLAWYQQKPGQAPRLLIYGASSRATGIPDRFSGSGSGTDFTLTISRLEPEDFAVYYCKYYPYPPSFTFGQGTKVEIK
notes: IgG
Cynomolgus monkey BCMA
  Kd: 1.27 nM
  T½: 4.98 min
  koff: 0.00232 s⁻¹
  kon: 1.82e+06 M⁻¹ s⁻¹
Human BCMA (human)
  Kd: 0.31 nM
  T½: 12.8 min
  koff: 0.000906 s⁻¹
  kon: 2.92e+06 M⁻¹ s⁻¹
